Values belong to the binder of their own block, whether it stands above or below them.
How the values were obtained:
[1] = molecular target: T1, Recombinant human extracellular domain of IL13RA2-6His (27-343) (human, UniProt Q14627 27-343); assay: ELISA on coated IL13RA2-6His; antibody kept 8 days, column headed 'EC50 4° C.'
T1 construct: also called Human IL13RA2-6His; human IL13Rα2
T1 sequence: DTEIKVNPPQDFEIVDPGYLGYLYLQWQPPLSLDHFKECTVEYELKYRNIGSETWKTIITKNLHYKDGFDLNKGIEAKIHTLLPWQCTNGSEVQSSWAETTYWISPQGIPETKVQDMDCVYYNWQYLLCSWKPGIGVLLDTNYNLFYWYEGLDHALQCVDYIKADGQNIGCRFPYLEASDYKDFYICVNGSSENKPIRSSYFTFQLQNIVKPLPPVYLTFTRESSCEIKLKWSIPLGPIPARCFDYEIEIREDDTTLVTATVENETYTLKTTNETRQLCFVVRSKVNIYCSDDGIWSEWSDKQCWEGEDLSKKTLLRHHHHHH
Method: (§1) Recombinant human extracellular domain of IL13RA2-6His (27-343) was obtained from Sino biological (Ref 10350-H08H). 50 μl of 1 μg/ml of human IL13RA2 in PBS was coated overnight at 4° C. on MaxiSorp ELISA plates. The following morning, the plate is washed with PBS/Tween20 0.02%. Each well has 200 μl of Superblock blocking buffer added and incubated at room temperature for 1 hour in an orbital shaker at 120 rpm. A dilution series of each antibody was prepared, with dilutions of each antibody variant in PBS/Tween20 0.02%. The antibodies are added to blocked antigen coated plates and incubated for 1 hour at room temperature with 120 rpm shaking on an orbital shaker. Plates are then washed 3-times with 200 μl of PBS/Tween20 0.02% and 75 μl of secondary antibody (Mouse anti-human-HRP diluted 1 in 4000 in PBS/Tween20 0.02%) is added to the wells and incubated for 1 hour at room temperature with 120 rpm shaking on an orbital shaker. Plates are then washed 3-times with 200 μl of PBS/Tween20 0.02%. To develop the ELISA, 75 μl of TMB-Turbo substrate is added to the wells and incubated at room temperature with 120 rpm shaking on an orbital shaker till a blue colour develops, the reaction is then stopped with the addition of 75 μl of 0.6 N HCl. Plates are read on the Envision at […] and curves are analysed using GraphPad prism software
(§2) Binding of the variants listed in Table 3 to IL13Rα2 was also assessed by ELISA following incubation at 4° C. or 45° C. for 8 days. […] These binding data also indicate that the humanised variants VHAback/VKA and VHA3/VKA2 have improved stability properties as compared to the chimeric Clone 47.

[2] = molecular target: T1, Recombinant human extracellular domain …; assay: Biacore (SPR), apparent KD, IL13RA2-6His on the sensor, bivalent antibody in solution
From the text: (§3) Biacore analysis using Human IL13RA2-6His coated sensor was used to calculate apparent affinity constants of the Clone 47 variants. A dilution series of the antibody variants were applied to the IL13RA2 sensor surface for 600 seconds […] to calculate the association constant Ka and buffer (HBS-EP+) was then applied for 1800 seconds to calculate the dissociation constant Kd. The ratio of the two constants will provide an apparent KD as the bivalency of the antibody will affect the binding kinetics.
(§4) Binding affinity of a chimeric (Ch) Clone 47 and select humanised variants to human IL13Rα2 was measured on Biacore.

[3] = molecular target: T2, IL13RA2 on NCI-H1299 cells (human, UniProt Q14627); assay: flow cytometry on NCI-H1299 cells, Alexa Fluor 488 anti-human IgG detection
T2 construct: cell-surface protein on NCI-H1299 cells; Cell-borne form of the target; It is kept apart from m1, which is the recombinant His-tagged extracellular domain; The sheet's title names the antibodies 'anti-IL13RA2 IgG' and the cells 'NCI-H1299 cells'; also called IL13Rα2; Interleukin-13 receptor subunit alpha-2
T2 sequence (receptor chain, looked up): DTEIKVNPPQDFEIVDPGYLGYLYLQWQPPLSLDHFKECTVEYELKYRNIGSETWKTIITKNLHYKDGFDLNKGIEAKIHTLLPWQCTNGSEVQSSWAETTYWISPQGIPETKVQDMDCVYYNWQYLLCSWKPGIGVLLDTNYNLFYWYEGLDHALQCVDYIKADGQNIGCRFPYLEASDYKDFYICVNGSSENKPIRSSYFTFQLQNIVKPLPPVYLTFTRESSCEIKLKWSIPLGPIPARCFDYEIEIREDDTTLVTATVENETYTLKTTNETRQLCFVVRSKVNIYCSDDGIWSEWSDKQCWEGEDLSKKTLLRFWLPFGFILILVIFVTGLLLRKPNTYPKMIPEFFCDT
Method: NCI-H1299 cells were diluted to 2×10⁶ cells/mL in assay buffer (0.1% BSA/0.1% Sodium Azide in PBS) and 50 μL added per well to a 96-well-plate. The HuCL47 and Clone 47 antibodies were diluted to a top concentration of 40 μg/ml (266 nM) of and diluted 1:4 for 7 dilutions as well as buffer only. 50 μL of the antibody were added to 50 μL of cells to give a concentration of 20 μg/ml. The plate was incubated for 1 hour at room temperature, after which the plate was centrifuged and washed three times. A Goat F(ab′)2 Anti-Human IgG Alexa Fluor 488-conjugated antibody was used (Life Technologies Cat. No. H10120) at a 1 in 250 dilution for detection in assay buffer, 50 μL added to cells and after one hour of incubation at room temperature the cells centrifuged and washed as before, fixed with 7.5% formaldehyde and analysed on the Flow cytometer, with data analysis carried out using FlowJo.
Chimeric clone 47 and HuCL47 were compared in terms of their: binding to NCI-H1299 Cells by standard FACS analysis using NCI-H1299 cells and unmodified purified antibodies. In vitro cytotoxicity analysis was performed on both A375 and NCI-1299 cells, using a pyrollobenzodiazepine dimer (PBD) warhead conjugated to chimeric clone 47 and HuCL47.

[4] = molecular target: T1, Recombinant human extracellular domain …; assay: Biacore (SPR), IL13RA2-6His on the sensor, bivalent antibody in solution
From the text: as §3, §4

[5] = molecular target: T1, Recombinant human extracellular domain …; assay: ELISA on plate-coated human IL13RA2-6His, anti-human-HRP detection
Method: as §1

[6] = molecular target: T1, Recombinant human extracellular domain …; assay: ELISA on coated IL13RA2-6His; antibody kept 8 days, column headed 'EC50 45° C.'
Method: as §1, §2

B1: Clone 47 VHA / Clone 47 VKA (HuCL47) (antibody, V domains shown)
VH: QVQLVQSGAEVKKPGASVKVSCKASGYTFSNYLMNWVRQAPGQGLEWMGRIDPYDGDIDYNQNFKDRVTITRDTSASTAYMELSSLRSEDTAVYYCARGYGTAYGVDYWGQGTSVTVSS
VL: EIVLTQSPATLSLSPGERATLSCRASESVDNYGISFMNWYQQKPGQAPRLLIYAASRQGSGIPDRFSGSGSGTDFTLTISRLEPEDFAVYYCQQSKEVPWTFGGGTKLEIK
notes: Expressed as IgG in Expi293 cells; also called VHA/VKA; VHANKA
EC50 [1]: 0.0178 µg/mL | Kd [2]: 100 pM | EC50 (read off the curve) [3]: ~0.04 µg/mL | koff [4]: 1.12e-05 s⁻¹ | kon [4]: 112000 M⁻¹ s⁻¹ | EC50 (read off the curve) [5]: ~50 pM | EC50 [6]: 0.0184 µg/mL

B2: Clone 47 VHA3 / Clone 47 VKA2 (antibody, V domains shown)
VH: QVQLVQSGAEVKKPGASVKVSCKASGYTFSNYLMNWVRQAPGQGLEWMGRIDPYDGDIDYNQNFKDRVTITRDKSASTAYMELSSLRSEDTAVYYCARGYGTAYGVDYWGQGTSVTVSS
VL: EIVLTQSPATLSLSPGERATLSCRASESVDNYGISFMNWYQQKPGQAPRLLIYAASRQGSGIPDRFSGSGSGTDFTLTISRLEPEDFAVYFCQQSKEVPWTFGGGTKLEIK
notes: Expressed as IgG in Expi293 cells; also called VHA3/VKA2
EC50 [1]: 0.0258 µg/mL | EC50 [6]: 0.0123 µg/mL

B6: Clone 47 VHAback / Clone 47 VKA1 (antibody, V domains shown)
VH: QVQLVQSGAEVKKPGASVKVSCKASGYTFSNYLMNWVRQAPGQGLEWIGRIDPYDGDIDYNQNFKDRATLTVDKSASTAYMELSSLRSEDTAVYYCARGYGTAYGVDYWGQGTSVTVSS
VL: EIVLTQSPATLSLSPGERATLSCRASESVDNYGISFMNWFQQKPGQAPRLLIYAASRQGSGIPDRFSGSGSGTDFTLTISRLEPEDFAVYYCQQSKEVPWTFGGGTKLEIK
notes: Expressed as IgG in Expi293 cells; also called VHAback/VKA1
EC50 [1]: 1.01 µg/mL | EC50 [6]: 0.0128 µg/mL

B7: chimeric (Ch) Clone 47 (antibody, V domains shown)
VH: QVQLQQPGAELVRPGASVKLSCKASGYTFSNYLMNWVKQRPEQDLDWIGRIDPYDGDIDYNQNFKDKAILTVDKSSSTAYMQLSSLTSEDSAVYYCARGYGTAYGVDYWGQGTSVTVSS
VL: not shown
notes: Chimeric antibody with the murine Clone 47 variable domains; also called chimeric Clone 47
EC50 [1]: 0.0777 µg/mL | Kd [2]: 530 pM | EC50 (read off the curve) [3]: ~0.04 µg/mL | koff [4]: 6.58e-05 s⁻¹ | kon [4]: 125000 M⁻¹ s⁻¹ | EC50 (read off the curve) [5]: ~40 pM | EC50 [6]: 0.0168 µg/mL

Continued, values first:

EC50 [1]: 0.0581 µg/mL | Kd [2]: 210 pM | koff [4]: 2.65e-05 s⁻¹ | kon [4]: 124000 M⁻¹ s⁻¹ | EC50 [6]: 0.0123 µg/mL
B3: Clone 47 VHA / Clone 47 VKA1 (antibody, V domains shown)
VH: QVQLVQSGAEVKKPGASVKVSCKASGYTFSNYLMNWVRQAPGQGLEWMGRIDPYDGDIDYNQNFKDRVTITRDTSASTAYMELSSLRSEDTAVYYCARGYGTAYGVDYWGQGTSVTVSS
VL: EIVLTQSPATLSLSPGERATLSCRASESVDNYGISFMNWFQQKPGQAPRLLIYAASRQGSGIPDRFSGSGSGTDFTLTISRLEPEDFAVYYCQQSKEVPWTFGGGTKLEIK
notes: Expressed as IgG in Expi293 cells; also called VHA/VKA1

EC50 [1]: 0.148 µg/mL | Kd [2]: 60 pM | koff [4]: 8.2e-06 s⁻¹ | kon [4]: 131000 M⁻¹ s⁻¹ | EC50 [6]: 0.0204 µg/mL
B4: Clone 47 VHA / Clone 47 VKA2 (antibody, V domains shown)
VH: QVQLVQSGAEVKKPGASVKVSCKASGYTFSNYLMNWVRQAPGQGLEWMGRIDPYDGDIDYNQNFKDRVTITRDTSASTAYMELSSLRSEDTAVYYCARGYGTAYGVDYWGQGTSVTVSS
VL: EIVLTQSPATLSLSPGERATLSCRASESVDNYGISFMNWYQQKPGQAPRLLIYAASRQGSGIPDRFSGSGSGTDFTLTISRLEPEDFAVYFCQQSKEVPWTFGGGTKLEIK
notes: Expressed as IgG in Expi293 cells; also called VHA/VKA2

EC50 [1]: 0.0456 µg/mL | Kd [2]: 50 pM | koff [4]: 5.3e-06 s⁻¹ | kon [4]: 115000 M⁻¹ s⁻¹ | EC50 [6]: 0.0164 µg/mL
B5: Clone 47 VHAback / Clone 47 VKA (antibody, V domains shown)
VH: QVQLVQSGAEVKKPGASVKVSCKASGYTFSNYLMNWVRQAPGQGLEWIGRIDPYDGDIDYNQNFKDRATLTVDKSASTAYMELSSLRSEDTAVYYCARGYGTAYGVDYWGQGTSVTVSS
VL: EIVLTQSPATLSLSPGERATLSCRASESVDNYGISFMNWYQQKPGQAPRLLIYAASRQGSGIPDRFSGSGSGTDFTLTISRLEPEDFAVYYCQQSKEVPWTFGGGTKLEIK
notes: Expressed as IgG in Expi293 cells; also called VHAback/VKA

— patent publication US20220033508A1 (ADC THERAPEUTICS, published 2022)
